# From patent publication US20240075096A1, “ANTIMICROBIAL PEPTIDE LIQUID COMPOSITION AND FORMULATION THEREOF” (priority 2021, published 2024)
# How the values were obtained:
# [1] = test system: Methicillin-sensitive Staphylococcus aureus (MSSA) clinical isolates; test: In vitro bacteriostatic and bactericidal tests (MIC, MBC); type: cell-based; conditions: MSSA clinical strains
# [2] = test system: Staphylococcus aureus ATCC29213; test: as above; type: cell-based; conditions: standard strain ATCC29213
# [3] = test system: methicillin-resistant Staphylococcus aureus (MRSA) clinical isolates; test: as above; type: cell-based; conditions: MRSA clinical strains
# [4] = test system: Methicillin-resistant coagulase-negative Staphylococcus (MRSCNS) clinical isolates; test: as above; type: cell-based; conditions: MRSCNS clinical strains
# [5] = test system: Methicillin-sensitive coagulase-negative Staphylococcus (MSSCNS) clinical isolates; test: as above; type: cell-based; conditions: MSSCNS clinical strains
# [6] = Stability investigation of antimicrobial peptide compositions (trait, related substances and content by HPLC); type: physicochemical
# [7] = 4° C., 0 days, peptide 2‰, stabilizer 1% (Table 2)
# [8] = 4° C., 6 months, peptide 2‰, stabilizer 1% (Table 2)
# [9] = 4° C., 12 months, peptide 2‰, stabilizer 1% (Table 2)
# [10] = 4° C., 24 months, peptide 2‰, stabilizer 1% (Table 2)
# [11] = 4° C., 36 months, peptide 2‰, stabilizer 1% (Table 2)
# [12] = 25° C., 0 days, different mannitol systems (Table 3)
# [13] = 25° C., 0 days, peptide 2‰, stabilizer 1% (Table 1)
# [14] = 25° C., 1 month, peptide 2‰, stabilizer 1% (Table 1)
# [15] = 25° C., 3 months, different mannitol systems (Table 3)
# [16] = 25° C., 3 months, peptide 2‰, stabilizer 1% (Table 1)
# [17] = 25° C., 6 months, different mannitol systems (Table 3)
# [18] = 25° C., 6 months, peptide 2‰, stabilizer 1% (Table 1)
compound,measurement,setting,value
"CN[C@H](CC(C)C)C(=O)N[C@H]1C(=O)N[C@@H](CC(N)=O)C(=O)N[C@H]2C(=O)N[C@H]3C(=O)N[C@H](C(=O)N[C@H](C(=O)O)c4cc(O)cc(O)c4-c4cc3ccc4O)[C@H](O)c3ccc(c(Cl)c3)Oc3cc2cc(c3O[C@@H]2O[C@H](CO)[C@@H](O)[C@H](O)[C@H]2O[C@H]2C[C@](C)(N)[C@H](O)[C@H](C)O2)Oc2ccc(cc2Cl)[C@H]1O [Vancomycin, vancomycin]",MIC Concentration Range,[1],0.5 to 4 µg/mL
same,MBC Concentration Range,[2],4 µg/mL
same,MIC Concentration Range,[2],1 µg/mL
same,MIC Concentration Range,[3],0.5 to 4 µg/mL
same,MIC Concentration Range,[4],0.5 to 4 µg/mL
same,MIC Concentration Range,[5],0.5 to 4 µg/mL
"KWKSFLKTFKSAAKTVLHTALKAISS [antimicrobial peptide, tested alone as aqueous solution without stabilizer]",Content,[6]; [7],99.87%
same,Largest Single Impurity (Related Substance),[6]; [7],0.19%
same,Total Impurities (Related Substance),[6]; [7],0.32%
same,Trait,[6]; [7],colorless clear liquid
same,Content,[6]; [8],97.51%
same,Largest Single Impurity (Related Substance),[6]; [8],0.27%
same,Total Impurities (Related Substance),[6]; [8],0.58%
same,Trait,[6]; [8],colorless transparent
same,Content,[6]; [9],94.51%
same,Largest Single Impurity (Related Substance),[6]; [9],0.32%
same,Total Impurities (Related Substance),[6]; [9],0.68%
same,Trait,[6]; [9],colorless transparent
same,Content,[6]; [10],85.57%
same,Largest Single Impurity (Related Substance),[6]; [10],0.72%
same,Total Impurities (Related Substance),[6]; [10],2.01%
same,Trait,[6]; [10],colorless transparent
same,Content,[6]; [11],76.55%
same,Largest Single Impurity (Related Substance),[6]; [11],0.96%
same,Total Impurities (Related Substance),[6]; [11],3.02%
same,Trait,[6]; [11],colorless transparent
same,Content,[6]; [12],100.12%
same,Largest Single Impurity (Related Substance),[6]; [12],0.16%
same,Total Impurities (Related Substance),[6]; [12],0.30%
same,Trait,[6]; [12],colorless
same,Content,[6]; [13],99.87%
same,Largest Single Impurity (Related Substance),[6]; [13],0.19%
same,Total Impurities (Related Substance),[6]; [13],0.32%
same,Trait,[6]; [13],colorless clear liquid
same,Content,[6]; [14],98.51%
same,Largest Single Impurity (Related Substance),[6]; [14],0.25%
same,Total Impurities (Related Substance),[6]; [14],0.53%
same,Trait,[6]; [14],colorless transparent
same,Content,[6]; [15],98.42%
same,Largest Single Impurity (Related Substance),[6]; [15],0.26%
same,Total Impurities (Related Substance),[6]; [15],0.55%
same,Trait,[6]; [15],colorless
same,Content,[6]; [16],88.57%
same,Largest Single Impurity (Related Substance),[6]; [16],0.68%
same,Total Impurities (Related Substance),[6]; [16],1.96%
same,Trait,[6]; [16],colorless transparent
same,Content,[6]; [17],87.67%
same,Largest Single Impurity (Related Substance),[6]; [17],0.85%
same,Total Impurities (Related Substance),[6]; [17],1.99%
same,Trait,[6]; [17],colorless
same,Content,[6]; [18],78.88%
same,Largest Single Impurity (Related Substance),[6]; [18],0.98%
same,Total Impurities (Related Substance),[6]; [18],3.16%
same,Trait,[6]; [18],colorless transparent
